{
  "source": "IntAct's records for PubMed 11027267",
  "parents": {"B1": {"name": "KRR1 small subunit processome component (Saccharomyces cerevisiae), P25586 (parent)", "chain": "MVSTHNRDKPWDTDDIDKWKIEEFKEEDNASGQPFAEESSFMTLFPKYRESYLKTIWNDVTRALDKHNIACVLDLVEGSMTVKTTRKTYDPAIILKARDLIKLLARSVPFPQAVKILQDDMACDVIKIGNFVTNKERFVKRRQRLVGPNGNTLKALELLTKCYILVQGNTVSAMGPFKGLKEVRRVVEDCMKNIHPIYHIKELMIKRELAKRPELANEDWSRFLPMFKKRNVARKKPKKIRNVEKKVYTPFPPAQLPRKVDLEIESGEYFLSKREKQMKKLNEQKEKQMEREIERQEERAKDFIAPEEEAYKPNQN", "partner": "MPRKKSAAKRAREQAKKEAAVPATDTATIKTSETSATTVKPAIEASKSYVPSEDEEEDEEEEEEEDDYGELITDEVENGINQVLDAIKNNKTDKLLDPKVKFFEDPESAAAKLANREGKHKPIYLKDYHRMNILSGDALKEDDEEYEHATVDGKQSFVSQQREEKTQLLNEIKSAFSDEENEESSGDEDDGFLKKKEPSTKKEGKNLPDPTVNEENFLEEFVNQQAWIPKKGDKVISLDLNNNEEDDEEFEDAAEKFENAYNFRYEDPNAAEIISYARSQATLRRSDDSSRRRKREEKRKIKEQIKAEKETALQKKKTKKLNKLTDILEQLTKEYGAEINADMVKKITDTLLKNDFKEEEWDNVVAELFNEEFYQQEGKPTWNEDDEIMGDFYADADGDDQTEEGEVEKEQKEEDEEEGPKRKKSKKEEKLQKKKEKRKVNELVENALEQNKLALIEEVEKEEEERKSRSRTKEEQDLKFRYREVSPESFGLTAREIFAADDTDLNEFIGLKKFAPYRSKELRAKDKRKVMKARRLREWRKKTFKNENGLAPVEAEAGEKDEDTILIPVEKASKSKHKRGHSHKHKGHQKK"}},
  "data": [
    {"variants_of": "B1", "details": "with kri1_yeast KRI1, P42846", "values": [
      {"variant": "F45L;L95S;R207G", "effect of a mutation on the interaction": "decreasing interaction"},
      {"variant": "K20E;K66N;C162R;D261A", "effect of a mutation on the interaction": "decreasing interaction"}
    ]}
  ]
}
